experiment: yeast display, Sf9 membrane polyspecificity reagent, FACS + sequencing; frameworks hold sequencing errors
In short: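 A nanobody's polyreactivity label depends on the gate it was sorted from. Yeast display cells were stained with 10% biotinylated, detergent-solubilized Sf9 membrane reagent for 1 hour at 4 °C, enriched on streptavidin microbeads and sorted by FACS. The low and high (top ~1%) gates were set on anti-HA fluorescence for expression and streptavidin fluorescence for reagent binding.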

Sequence | polyreactivity (PSR sort gate)
QVQLVESGGGLVQAGCSLRLTCAASGSIFPYYAMGWYRQAPGKERELVAAISYSGGRTRYADSVKGRFTISRDNAKNTVYLQMNSLKPEHTAVYYCAVVDRHQPYGRQLDYWGQGTQVTVSS | low polyreactivity
QVQLVESGGGLVQAGGSLRLSCAASGSTFFVYDMGWYRQAPGKERELVAAISSGGTTTYADSVKGRFTISRDNAKNTVNLQMNSLKPEDTAVYYCNARQYTRPYAFDYWGQGTQVTVSS | low polyreactivity
QVQLVESGGGLVQAGGSLRLSCAASGITFYGNAMGWYRQAPGKERELVAGISSGGSTSYADSVKGRFTISRDNAKNTVYLQMDSLKPEDTAVYYCAKRWYYGTRYGTSYIRDYWGQGTQVTVSS | high polyreactivity
QVQLVESGGGLVQAGGSLRLSCAASGRTFPGYAMGWYRQAPGKERELVAAISNSGGRTYYADSVKGRFTISRDNAKNTVYLQMNSLKPEDTAVYYCNALGRVRYSPRYGYDYWGQGTQVTVSS | high polyreactivity
QVQLVESGGGLVQAGGSLRLSCAASGRTFRYNAMGWYRQAPGKERELVAAIRYSGGRTYADSVKGRFTISRDNAKNTVYLQMNSLKPEDTAVYYCNADSIRRGYRYDYWGQGTQVTVSS | high polyreactivity
QVQLVESGGGLVQAGGSLRLSCAASGSTFEIYVMGWYRQAPGKERELVAAISRVGNTSYADSVKGRFTISRDNAKNTVYLQMNSLKPEDTAVYYCAADAPSWYDRQYDYWGQGTQVTVSS | low polyreactivity
QVQLVESGGGLVQAGGSLRLSCAASGSIFDSYAMGWYRQAPGKERELVADITSDGSTHYADSEKGRFRISRDNAKNTVYLQMNSLKPEDTAVYYCAADYFFYLLGVPVVDVYYWGQGTQVTVSS | low polyreactivity
QVQLGESGGGLVQAGGSLRLSCAASGFIFRYYGMGWYRQAPGKERELVAAISRGGGSTYYADSVKGRFTISRDNAKNTVYLQMNSLKPEDTAVYYCATRRDPDYDYWGQGTQVTVSS | high polyreactivity
QVQLVESGGGLVQAGGSLRLSCAASGRIFGGYVMGWYRQAPGKEREFVAAISGRGTSTSYADSVKGRFTISRDNAKNTVYLQMNSLKPEDTAVYYCAARRDGWTFWKYDYWGQGTQVTVSS | high polyreactivity
QVQLVESGGGLVQAGGSLRLSCAASGRTFVGNSMGWYRQAPGKERELVADITWSGDITYYADSVKGRFTISRDNAKNTVYLQMNSLKPEDTAVYYCAADYHRRRTDYDYWGQGTQVTVSS | low polyreactivity
HVQLQESGGGLVQAGGSLRLSCAASGNISYSRNMGWYRQAPGKERELVAAIDRGAITYYADSVKGRFTISRDNAKNTVYLQIYSLKPEDTAVYYCAAEYHDRGDHRYWGQGTQVTVSS | high polyreactivity
QVQLVESGGGLVQAGGSLRLSCAASGSTFDPYAMGWYRQAPGKEREFVAAISGSGGSTYYADSVKGRFTISRDNAKNTVYLQMNSLKPEDTAVYYCAKDSFPWVDDDYWGQGTQVTVSS | low polyreactivity
QVQLVESGGGLVQAGGSLRLSCAASGSTFWQYALGWYRQAPGKEREFVAAISSRGGSTYYADSVKGRFTISRDNAKNTVYLQMNSLKPEDTAVYYCAAQNYFAFIRTYRYVHRPTYYYWGQGTQVTVSS | high polyreactivity
QVQLVESGGGLVQEGGSLRLSCAASGFTFVGYAMGWYRQAPGKERELLASIPWGGDRTYYADTVKGRFTISRDNAKNTDYLQMNSLKPEDTAVYYCNAQYEIWRVTFSPYDRWGYDYWGQGTQVTVSS | low polyreactivity
QVQLVESAAGLVQAGGSLRLSCAASGLNSSYYAMGWYRQAPGKERELVAAISRCGSTNYADSVKGRFTISRDNGKNTLYLQMNSLKPEDTAVYYCNADEYGGSTGRKGRYNYWGQGTQVTVSS | low polyreactivity
QVQLVESGGGLVQAGGSLRLSCAASGRTSGKNAMGSYRQATRKEREMVAAISSSGGSTYYADSVKGRFTISRDNAKNTVYLQMNSLKPEDTAVYYCAAKYFRKYSQIGPDMYYWGQGTQVTVSS | high polyreactivity
QVQLVESGGGLVQAGGSLRLSSAASGFTFTIYAMGWYRPAPGKERELVDTISTRGGNTYYADSVKGRFTISRDNAKNTVYLQMNSLKPEDTAVYYCAAEHWFPSAPWYYSDLHYYWGQGTQVTVSS | high polyreactivity
QVQLVESGGRLVQAGGSLRLSCAASGFIFDDYDIGWYTQAPGKERELVDAISWSGGSTYYEDSLKGRFTISRDNAKNTVYLQMNSLKPEDTAVYYCNADYYRSRYDYWGQGTQVTVSS | high polyreactivity
QVQLVESGGGLLQAGGSLRLSCAASGFTFRNYAMGWYRQAPGKEREFVAAITGRGGSTYYADSVKGRFTISRDNAKNTVYLQMNSLKPEDTAVYYCNAYSGVSFYSSWYGYWGQGTQVTVSS | high polyreactivity
QVQLVESGGGLVHAGGSLRLSCAASGRIFSYYTMGWYRQAPGKERELVAAITASDGDTYYADSVKGRFTISRDNAMNTVYLQMNSLKPEDTAVYYCAADFWYYHTRMDYWGKGTQVTVSS | low polyreactivity
QVQLVESGGGLVQAGGSLRLSCAASGITFSYNAMGWYRQAAGKERELVAAITWSGDSTYYADSVKGRFTISRDNAKNTVYLQMNSLKPEDTAVYYCNAVPSQHDEFDYWGQGTQVTVSS | low polyreactivity
QVQLEESGGGLVQAGGSLRLSCAASGSIFRVYAMGWYRQAPGKERELVAAISQSADSTYYADSVKGRFTILRDNAKNTVYFQMNSLKPEDTAVYYCAAEYPYIYRFDYWGQGTQVTVSS | low polyreactivity

Sequence | polyreactivity (PSR sort gate)
QVQLVESGGGLVQAGGSLRLSCAASGSIFGDYARGWYRQAPGKERELVAAISRSGGSTSYADSVKGRFTISRDNAKNTVYLQMNSLKPEDSAVYYCAAYWQRFGYDYWGQGTQVSVSS | low polyreactivity
QVQLVESGGGLVQAGGSLRLSCAASGSIFVGYTMGWYRQAPGKERELVAAITRRGGSTYYADSVKGRFTISRDNAKNTVYLQMNSLKPEDTAVYYCAAEVRRYVIVPYYYWGQGTQLTVSS | high polyreactivity
QVQLEESGGGLVQAGGSLRLSCAASGRLFYSNPMGWYREAPGKEREVVAAISSGASTYYADSVKGRFTISRDNAKNTVYLQMNSLKPEDTAVYYCAVYRPSSYDYGYWGQGTQVTVSS | low polyreactivity
QVQLVESGGGLVQAGGSLRLSCAASGSIFYRNAMGWSRQAPGKEREFVAAITLRGGSTYYADSVKGRFTISRDYAKNTVYLQMNSLKPEDTAVYYCNAGVGLTYVHDGDYWGQGTQVTVSS | low polyreactivity
QVQLVESGGGLVQAGGSLRLSCAASGSIFTSYTMGWYSQAPGKERELVAAIDSGGDSTYYADSVKGRFTISRDNAKNTVYLQMNSLKPEDTAVYYCAAEPQYWWQDYRYNYWGQGTQVTVSS | high polyreactivity
QVQLVESGGGLVQAGGSLRLSCAASGSTYGDNAMGWYRQAPGKERELVAAISSGGGSTYYADSVKGRFTISRDNAKNTVYLQMYSLNPEDTAVYYCGADGTLTLYRYILDYWGQGYQVTVSS | low polyreactivity
QVQLVESGGGLVQAGGSLRLSCAASGRIFLGYAMGWYRQAPGKERELVATITWNSDGTYYADSVKGRFTISRDNAKNTVYLQMNSLKPEDTAVYYCATDEGWPWYYYWGQGTQVTVSS | low polyreactivity
QVQLQESGGLVQAGVSLRLSCAASGSISGRNVMGWYLQAPVKQREFVASITDGSSSNYADSVKGRFTISRDNAKNTVYLQMNSLKPTDTAVYYCAAYGLRPKSFGNWGGGTQVTVSS | low polyreactivity
QVQLVESGGGLVQAGGSLRLSCAASGRTFKLYAMGWYRQAPGKERELVAAISRSGGSTYYADSVKGRFTISRDNAKNTVYLQMNSLKPEDTAVYYCNRRQGYHGDYDYWGQGTQVTVSS | high polyreactivity
QVQLVESGGGLVQAGGSLRLSCAASGLMFSYYAMGWYRQAPGKERELVAAISWNGGSTYYADSVKGRFTISRDNAKNTVYLQMNSLKPEDTAVYYCAVRLDLGWYYYWGQGTQVTVSS | high polyreactivity
QVQLVEAGGGLVQAGGSLRLSCAAAGRTFSANALGWSRQAPGKERELVATITLRGGSTNYADSVKGPFTISRDHAKNTVYLQINSLKPEDTAVYDCNAYVNANVRRAYWGFDYWGQGTHVTVSS | high polyreactivity
QVQLVESGGGLVQAGGSLRLSCAASGLIFVWYAMGWYRQAPGKERELVAAITRSGGSTYYADSVKGRFTISRDNAKNTVYLQMNSLKPEDTAVYYCAARWKFPSSFYYWGQGTQVTVSS | high polyreactivity
QVQLVESGGGLVQAGGSLRLSCAASGSIFNSNAMGWYRPAPGKERELVAAITGSGGRTYYADSVKGRFTISRDNAKNTVYLKMNSLKPEDTAVYYCNVTRGTIGGYSYWGQGTQVTVSS | high polyreactivity
QVQLVESGGGLVQAGGSLRLSCAASGGIILGYAMRWYRQARGKERELVAAISRSGVSTYYADSVKGRFTISRDNAKNTVYLQMNSLKPEDTAVYYCASDYRYASDYWGLGTQVTVSS | low polyreactivity
QVQLVESGGGIVQAGGSLRKSCAASGFTFDENAMGWYRQAPGINYSGASTYYADSVKGRFTISRDNAKNTVYLQMNSLKPEDTAVYYCAAEVVAQMNYWGQGTQVTVSS | low polyreactivity
QVQLVESGGGLVQAGGRLRLSCAASGSIYPDKAMGWYRQAPGKERELVAAIDKGTGSTNYADSVKGRFTISRDNAKITVNLQLNSLKPEDTAVYYCAKGWLTPRGGAWYDDYWGQGTQVTVSS | low polyreactivity
QDQLVESGGGLVQAGGSLRLSCAASGFTFGYYVMGWYRQAPGKERELVAAITQRGGSTYADSVKGRFTISRDNAKNTVYLQMNSLKPEDTAVYYCAAPIYNGYASWQVYYWGQGTQVTVSS | high polyreactivity
QVQLVESGGGLVQAGGSLRLSCAASGLTFAINTMGLNRQAPGKESELVAAITGSGGSTYYADSVKGRFTISRDNAKYTVYLQMKSLKPEDTAVYYCAAELLYVQGYAMDFWGQGTQVTVSS | low polyreactivity
QVQLVESGGGLVQAGGSLRLSCAASGFIFRFNAMGWYRQAPGKERQLVAAISGSGGITYYADSVKGRFTISRDNAKNTVYLQMNSLKPEDTAVYYCAARPLFGWRGYNYWGQGTQVTVSS | high polyreactivity
QVQLVESGGGIVQAGGSLRLSCAASGFTYSDYAMGWYRQAPGKERELVAGISSGGSTNYADSVKGRFTISRDNAKYTVYFQMNSLKQVDTAVYYCAAYLYATWSYFFTWLDFWGQGTKVTVSS | high polyreactivity
QVQLVESGGGLVQAGGSLRLSCAASGITFARYAMGWYRQAPGKETELVAALSKRGGRTYYADSVKGRFTISRDNAKNTVYLQMNSLKPEDTAVYYCATDYYVSTDYNYWGQGTQVTVSS | high polyreactivity

— the nanobody polyreactivity screen of Harvey et al. (2022)
